Data from US20180186880A1.

Molecular target: B7-H3 ECD (extracellular domain of B7-H3) (UniProt Q5ZPR3)
Assay: adsorption ELISA on B7-H3 ECD, serial dilutions of purified mAb, estimate of binding affinity

- Affinity: 5 nM
B1: TRL4542 (antibody, V domains shown)
VH: QVQLVESGGDLVQPGESLRLSCAASGFIFSDAWMVWVRQAPGKGLEWVGRIKTNGDGGTTDLTEPVKGRFTISRDDSKNMVYLQMNNLRTEDTAIYYCTTAPGFWGQGTLVTVSS
VL: DIEMTQSPDSLAVSLGERATINCKSSHNLLYKSNNKNYLAWSQQKPGQPPRLLIYWASTRDSGVPDRFSGSGSGTDFTLTISSLQAEDVAVYYCHQYYGTKWTFGQGTRVEIKR
